In publication PMC5783997 one finds stoichiometry N data, which are given here for two substances.

The target in experiment [1] is PucD LH2 α-apoprotein (α-polypeptide encoded by the pucBAd gene pair) (Rhodopseudomonas palustris (endogenous in the ΔpucBAabce mutant; genome sequence of strain CGA009)). Put plainly: crystal structure; PucD LH2 in 20 mM Tris-Cl pH 8.0, 0.15% DM, 3.0% HPT, PEG 600, 50 mM CaCl2, 16 °C; data to 4.71 Å; molecular replacement with the nonameric Rps. acidophila 10050 LH2, jelly-body refinement.

The target in experiment [2] is PucD LH2 β-apoprotein (β-polypeptide encoded by the pucBAd gene pair) (Rhodopseudomonas palustris (endogenous in the ΔpucBAabce mutant; genome sequence of strain CGA009)). The description is as above.

In experiment [1], “PucD LH2 α-apoprotein (α-polypeptide encoded by the pucBAd gene pair) (natural protein)” gave a stoichiometry N of 9. For the substance “PucD LH2 β-apoprotein (β-polypeptide encoded by the pucBAd gene pair) (natural protein)”, the stoichiometry N in experiment [2] came out at 9.

As a reminder, the stoichiometry N is the number of molecules, sites or subunits per partner or assembly.
